# Measurements: patent publication US20220025021A1 (BETH ISRAEL DEACONESS MEDICAL CENTER, published 2022)
# Numbering of substitutions follows the chain as printed.
# B1: MS-93 (antibody)
# VH: not shown
# VL: DIVLTQSPLSLSVTPGESASISCKSSHSLIHGDRNNYLAWYVQKPGRSPQLLIYLASSRASGVPDRFSGSGSDKDFTLKISRVETEDVGTYYCMQGRESPWTFGQGTKVDIKRTVAAPSVFIFPPSDEQLKSGTASVVCLLNNFYPREAKVQWKVDNALQSGNSQESVTEQDSKDSTYSLSSTLTLSKADYEKHKVYACEVTHQGLSSPVTKSFNRGEC
# B2: MS-95 (antibody)
# VH: not shown
# VL: B1 VL with L9H, D73G
# B3: MS-94 (antibody)
# VH: not shown
# VL: B1 VL with L9H, S18P
# B4: MS-96 (antibody)
# VH: not shown
# VL: B1 VL with L9H, T85A
# B5: MS-101 (antibody)
# VH: not shown
# VL: B1 VL with I2F, L9H, S18P, T85A
# B6: MS-100 (antibody)
# VH: not shown
# VL: B1 VL with I2F, L9H, S18P, D73G
# B7: MS-98 (antibody)
# VH: not shown
# VL: B1 VL with I2F, D73G
# B8: MS-102 (antibody)
# VH: not shown
# VL: B1 VL with I2F, L9H, D73G, T85A
# Biological target: HIV-1 pseudovirus AC10.0.29 (envelope glycoprotein) (HIV-1)
# Test: cell-based or functional assay
Binder,neutralization IC50 [µg/mL],neutralization IC80 [µg/mL]
B1,0.058,0.301
B2,0.076,0.27
B3,0.079,0.299
B4,0.064,0.253
B5,0.045,0.221
B6,0.042,0.211
B7,0.067,0.245
B8,0.047,0.168

# Biological target: HIV-1 pseudovirus 6952.v1.c20 (envelope glycoprotein) (HIV-1)
# Test: cell-based or functional assay
Binder,neutralization IC50 [µg/mL],neutralization IC80 [µg/mL]
B1,0.259,4.31
B2,0.229,6.26
B3,0.238,3.67
B4,0.558,8.56
B5,0.254,3.51
B6,0.182,1.68
B7,0.109,1.6
B8,0.162,2.53

# Biological target: HIV-1 pseudovirus SC05.8C11.2344 (envelope glycoprotein) (HIV-1)
# Test: cell-based or functional assay
Binder,neutralization IC50 [µg/mL],neutralization IC80 [µg/mL]
B1,0.749,2.48
B2,0.702,1.79
B3,0.739,2.5
B4,1.07,3.4
B5,0.819,2.69
B6,0.531,1.77
B7,0.59,1.9
B8,0.527,1.42

# Biological target: HIV-1 pseudovirus 263-8 (envelope glycoprotein) (HIV-1)
# Test: cell-based or functional assay
Binder,neutralization IC50 [µg/mL],neutralization IC80 [µg/mL]
B1,0.018,0.065
B2,0.013,0.047
B3,0.014,0.047
B4,0.018,0.064
B5,0.011,0.041
B6,0.006,0.026
B7,0.009,0.033
B8,0.007,0.027

# Biological target: HIV-1 pseudovirus Ce1176_A3 (envelope glycoprotein) (HIV-1)
# Test: cell-based or functional assay
Binder,neutralization IC50 [µg/mL],neutralization IC80 [µg/mL]
B1,0.239,5.33
B2,0.203,5.38
B3,0.371,11.7
B4,0.248,5.85
B5,0.043,1.94
B6,0.048,0.905
B7,0.102,2.36
B8,0.039,2.75

# Biological target: HIV-1 pseudovirus X1193_c1 (envelope glycoprotein) (HIV-1)
# Test: cell-based or functional assay
Binder,neutralization IC50 [µg/mL],neutralization IC80 [µg/mL]
B1,0.088,0.543
B2,0.111,0.467
B3,0.123,0.548
B4,0.113,0.677
B5,0.098,0.602
B6,0.058,0.358
B7,0.088,0.369
B8,0.071,0.412
